The values below come from patent publication US20250295794A1 (Memorial Sloan Kettering, published 2025).

Series [1] concerns the molecule itself. Briefly: fluorescence correlation spectroscopy; half-life of multimer dissociation, one-phase decay fit. From the text: (§1) FIG. 4 depicts a summary of fluorescence correlation spectroscopy (FCS) experiment regarding the SADA domains used here. […] Measurements were taken with a Zeiss LSM 880 confocal microscope. Normalized autocorrelations functions G(T) were then plotted to determine the diffusion times for each SADA-BiDE over time. All samples were compared against a monomeric anti-GD2 BiDE.

Series [2] deals with the molecule itself. Briefly: fluorescence correlation spectroscopy; dissociation of the self-assembled multimer after dilution from 500 nM to 0.5 nM, Cy3-175Lu-Bn-DOTA label, one-phase decay fit.
Text: as §1

A short description of series [3]: HPLC after single-step affinity purification; main peak at about 16 min is the self-assembled tetramer (self-association through the p63 SADA domain).
Series [4] concerns the molecule itself. Description: HPLC, traces normalized to peak intensity; main peak is the self-assembled multimer.
The target in another series is T1, IL-15 polypeptide (Homo sapiens (Human), UniProt P40933 49-162).
T1 construct: also called sIL15; soluble IL15
T1 sequence (P40933 49-162 limits assumed): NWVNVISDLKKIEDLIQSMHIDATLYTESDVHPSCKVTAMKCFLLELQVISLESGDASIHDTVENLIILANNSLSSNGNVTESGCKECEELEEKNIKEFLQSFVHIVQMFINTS
Description: production of the SADA-Cytokine complex; no direct binding assay described.

Series [5] in a line: HPLC after single-step affinity purification; main peak at about 16 min is the self-assembled tetramer (self-association through the p73 SADA domain).
A short description of series [6]: HPLC after single-step affinity purification; main peak at about 16 min is the self-assembled tetramer (self-association through the p53 SADA domain).

B1: P63-BiDE (hu3F8-scFv, huC825-scFv, huP63-tet, GS linker, IgG3 spacer) (bispecific antibody)
chain: EIVMTQTPATLSVSAGERVTITCKASQSVSNDVTWYQQKPGQAPRLLIYSASNRYSGVPARFSGSGYGTEFTFTISSVQSEDFAVYFCQQDYSSFGCGTKLEIKRGGGGSGGGGSGGGGSGGGGSGGGGSGGGGSQVQLVESGPGVVQPGRSLRISCAVSGFSVTNYGVHWVRQPPGKCLEWLGVIWAGGITNYNSAFMSRLTISKDNSKNTVYLQMNSLRAEDTAMYYCASRGGHYGYALDYWGQGTLVTVSSGGGGSGGGGSGGGGSGGGGSHVQLVESGGGLVQPGGSLRLSCAASGFSLTDYGVHWVRQAPGKGLEWLGVIWSGGGTAYNTALISRFTISRDNSKNTLYLQMNSLRAEDTAVYYCARRGSYPYNYFDAWGCGTLVTVSSGGGGSGGGGSGGGGSQAVVTQEPSLTVSPGGTVTLTCGSSTGAVTASNYANWVQQKPGQCPRGLIGGHNNRPPGVPARFSGSLLGGKAALTLLGAQPEDEAEYYCALWYSDHWVIGGGTKLTVLGTPLGDTTHTSGRSPDDELLYLPVRGRETYEMLLKIKESLELMQYLPQHTIETYRQQQQQQHQHLLQKQGGSGGAPHHHHHH
notes: Self-assembles into a homo-tetramer of about 200 kDa; also called p63 SADA-BiDE
One may read the half-life as the time in which the quantity being followed falls by half. The low end stands for fast loss, the high end for slow loss. As usually defined, the koff is a measure of how fast the partners let go of each other. The molecule B1 returned a half-life in series [1] of 3.08 h. In addition, the koff in series [2] was determined as 6.3e-05 s⁻¹. Moreover, the “% tetramer (HPLC purity, main peak)” value in series [3] came out at 89.2%.

B2: P53-Cytokine polypeptide (IL15Rα, huP53-tet, IgG3 spacer) (other)
chain: ITCPPPMSVEHADIWVKSYSLYSRERYICNSGFKRKAGTSSLTECVLNKATNVAHWTTPSLKCIRTPLGDTTHTSGKPLDGEYFTLQIRGRERFEMFRELNEALELKDAQAGKEPGGSGGAPHHHHHH
notes: The full complex is described as 8 pairs of IL15Rα/IL15 (about 200 kDa); also called SADA-Cytokine
Take B2: the binding result (in series [4]; with IL-15 polypeptide) was “binds” each time.

B3: P73-BiDE (hu3F8-scFv, huC825-scFv, huP73-tet, GS linker, IgG3 spacer) (bispecific antibody)
chain: EIVMTQTPATLSVSAGERVTITCKASQSVSNDVTWYQQKPGQAPRLLIYSASNRYSGVPARFSGSGYGTEFTFTISSVQSEDFAVYFCQQDYSSFGCGTKLEIKRGGGGSGGGGSGGGGSGGGGSGGGGSGGGGSQVQLVESGPGVVQPGRSLRISCAVSGFSVTNYGVHWVRQPPGKCLEWLGVIWAGGITNYNSAFMSRLTISKDNSKNTVYLQMNSLRAEDTAMYYCASRGGHYGYALDYWGQGTLVTVSSGGGGSGGGGSGGGGSGGGGSHVQLVESGGGLVQPGGSLRLSCAASGFSLTDYGVHWVRQAPGKGLEWLGVIWSGGGTAYNTALISRFTISRDNSKNTLYLQMNSLRAEDTAVYYCARRGSYPYNYFDAWGCGTLVTVSSGGGGSGGGGSGGGGSQAVVTQEPSLTVSPGGTVTLTCGSSTGAVTASNYANWVQQKPGQCPRGLIGGHNNRPPGVPARFSGSLLGGKAALTLLGAQPEDEAEYYCALWYSDHWVIGGGTKLTVLGTPLGDTTHTSGRHGDEDTYYLQVRGRENFEILMKLKESLELMELVPQPLVDSYRQQQQLLQRPGGSGGAPHHHHHH
notes: Self-assembles into a homo-tetramer of about 200 kDa; also called p73 SADA-BiDE
Take B3: in series [1], the half-life turned out to be 2.03 h. Also, the “% tetramer (HPLC purity, main peak)” value in series [5] worked out at 90.2%. In series [2], this molecule showed a koff of 9.5e-05 s⁻¹.

B4: P63-Cytokine polypeptide (IL15Rα, huP63-tet, IgG3 spacer) (other)
chain: ITCPPPMSVEHADIWVKSYSLYSRERYICNSGFKRKAGTSSLTECVLNKATNVAHWTTPSLKCIRTPLGDTTHTSGRSPDDELLYLPVRGRETYEMLLKIKESLELMQYLPQHTIETYRQQQQQQHQHLLQKQGGSGGAPHHHHHH
notes: The full complex is described as 8 pairs of IL15Rα/IL15; also called SADA-Cytokine
As to B4, the binding result (in series [4]; with IL-15 polypeptide) was “binds” in each case.

B5: P73-Cytokine polypeptide (IL15Rα, huP73-tet, IgG3 spacer) (other)
chain: ITCPPPMSVEHADIWVKSYSLYSRERYICNSGFKRKAGTSSLTECVLNKATNVAHWTTPSLKCIRTPLGDTTHTSGRHGDEDTYYLQVRGRENFEILMKLKESLELMELVPQPLVDSYRQQQQLLQRPGGSGGAPHHHHHH
notes: as for B4
Turning to B5, the binding result (in series [4]; in the series with IL-15 polypeptide) was “binds” in each case.

B6: P53-BiDE (hu3F8-scFv, huC825-scFv, huP53-tet, GS linker, IgG3 spacer) (bispecific antibody)
chain: EIVMTQTPATLSVSAGERVTITCKASQSVSNDVTWYQQKPGQAPRLLIYSASNRYSGVPARFSGSGYGTEFTFTISSVQSEDFAVYFCQQDYSSFGCGTKLEIKRGGGGSGGGGSGGGGSGGGGSGGGGSGGGGSQVQLVESGPGVVQPGRSLRISCAVSGFSVTNYGVHWVRQPPGKCLEWLGVIWAGGITNYNSAFMSRLTISKDNSKNTVYLQMNSLRAEDTAMYYCASRGGHYGYALDYWGQGTLVTVSSGGGGSGGGGSGGGGSGGGGSHVQLVESGGGLVQPGGSLRLSCAASGFSLTDYGVHWVRQAPGKGLEWLGVIWSGGGTAYNTALISRFTISRDNSKNTLYLQMNSLRAEDTAVYYCARRGSYPYNYFDAWGCGTLVTVSSGGGGSGGGGSGGGGSQAVVTQEPSLTVSPGGTVTLTCGSSTGAVTASNYANWVQQKPGQCPRGLIGGHNNRPPGVPARFSGSLLGGKAALTLLGAQPEDEAEYYCALWYSDHWVIGGGTKLTVLGTPLGDTTHTSGKPLDGEYFTLQIRGRERFEMFRELNEALELKDAQAGKEPGGSGGAPHHHHHH
notes: Self-assembles into a homo-tetramer of about 200 kDa; Its targets GD2 (ganglioside) and Bn-DOTA (hapten) are not proteins; only the self-association is recorded; also called p53 SADA-BiDE
For the molecule B6, the half-life in series [1] is 1.73 h. The same molecule returned a koff in series [2] of 0.000112 s⁻¹. Besides, the “% tetramer (HPLC purity, main peak)” value in series [6] worked out at 94.4%.
